Results: patent US10301203B2, “Chloroperoxidase-catalyzed degradation of pharmaceutical pollutants in wastewater” (THE FLORIDA INTERNATIONAL UNIVERSITY BOARD OF TRUSTEES, priority 2017, dated 2019)

Legend:
Format in all cases: biochemical
Conditions in all cases: CPO Rz=1.03
[1] = Standard MCD assay, halogenation activity of CPO
Procedure: (§1) The halogenation activity of CPO used in this study was 4232 U·mL^−1 based on the standard MCD assay (Hager et al., 1966). The aromatic hydroxylation activity (3563 U·mL-1) of the enzyme was determined by monitoring the hydroxylation of naphthalene into I-naphthol (Kluge et al., 2007). The classic peroxidase activity of the enzyme determined using ABTS as the substrate was 3071 U·mL^−1 (Manoj et al., 2008).

[2] = Aromatic hydroxylation activity of CPO, naphthalene hydroxylation
Procedure: as §1

[3] = Classic peroxidase activity of CPO, ABTS substrate
Procedure: as §1

B1: CPO: heme-containing glycoprotein secreted by the fungus Caldariomyces fumago (protein, UniProt P04963 21-319, looked up)
Chloroperoxidase: QEPGSGIGYPYDNNTLPYVAPGPTDSRAPCPALNALANHGYIPHDGRAISRETLQNAFLNHMGIANSVIELALTNAFVVCEYVTGSDCGDSLVNLTLLAEPHAFEHDHSFSRKDYKQGVANSNDFIDNRNFDAETFQTSLDVVAGKTHFDYADMNEIRLQRESLSNELDFPGWFTESKPIQNVESGFIFALVSDFNLPDNDENPLVRIDWWKYWFTNESFPYHLGWHPPSPAREIEFVTSASSAVLAASVTSTPSSLPSGAIGPGAEAVPLSFASTMTPFLLATNAPYYAQDPTLGPND
halogenation activity [1]: 4232 U·mL^−1 | aromatic hydroxylation activity [2]: 3563 U·mL-1 | classic peroxidase activity [3]: 3071 U·mL^−1
